One block for each binder: values may come before it.
Experiments:
[1] = target: T1, 6His–PAK4cat (PAK4 286–591) (human, UniProt O96013 286-591); assay: kinase inhibition assay; 50 nM purified PAK4cat, 10 μM GST-Raf1S338 peptide, 10 μM ATP (γ32P), 25 mM HEPES pH 7.3, 50 mM KCl, 10 mM MgCl2, 30 °C, 20 min; inhibitor pre-incubated with the kinase on ice 10 min; values from the intercepts of the inhibition graphs; conditions: both partners purified
T1 construct: human PAK4 catalytic domain, residues 286–591, in pSY5 (His tagged); Residues 297–589 are seen in PDB 4XBU; also called purified PAK4; source: E. coli BL21-CodonPlus(DE3), purified (Ni-NTA; semi-automated Akta system for crystallization)

[2] = target: T1, 6His–PAK4cat (PAK4 286–591); assay: crystal structure; in-vitro crystals, hanging drop, 6His–PAK4cat 5 mg/ml with 15-fold molar excess of peptide and two times molar excess of ATP, 0.1 M Tris–HCl pH 8.5, 12% PEG 8000, 25 °C, space group P4_(1)2_(1)2; conditions: both partners purified

T1 sequence (O96013 286-591): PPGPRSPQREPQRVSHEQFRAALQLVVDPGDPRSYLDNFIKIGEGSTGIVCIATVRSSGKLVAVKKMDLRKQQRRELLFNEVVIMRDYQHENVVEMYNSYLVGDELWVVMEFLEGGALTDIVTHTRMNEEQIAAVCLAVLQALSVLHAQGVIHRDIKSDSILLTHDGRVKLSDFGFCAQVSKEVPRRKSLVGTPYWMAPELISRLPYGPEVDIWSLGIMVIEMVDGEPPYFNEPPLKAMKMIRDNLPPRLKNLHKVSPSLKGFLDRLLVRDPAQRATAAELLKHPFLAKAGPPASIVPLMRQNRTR

Ki [1]: 30 nM
B1: GST-iBox (Inka1 166–203) (domain or fragment)
chain: EAEDWTAALLNRGRSRQPLVLGDNCFADLVHNWMELPE
modifications: GST carrier left out. Limits 166-203 are the paper's, taken from the 4XBR fusion: Flag/SGS 1-12, iBox 13-50, EF linker 51-52, PAK4 278-591 from 53 (12+38+2+314=366). Entity position = paper number …

binding result [2]: binds
B2: iBox 23mer synthetic peptide (peptide)
peptide: AEDWTAALLNRGRSRQPLVLGDW
notes: synthetic peptide of the amino-terminal part of the human Inka1 iBox (iBox is 166–203); residues 178–189 are seen in the structure; also called iBox24; synthetic iBox 24mer peptide; source: synthetic peptide

From paper PMC4674680, “An in cellulo-derived structure of PAK4 in complex with its inhibitor Inka1” (Nature Communications, 2015)
